Source: PMC4860841, “eIF2 interactions with initiator tRNA and eIF2B are regulated by post-translational modifications and conformational dynamics” (Cell Discovery, 2015)

B1: eukaryotic initiation factor 2 α-subunit (eIF2α) (natural protein, Saccharomyces cerevisiae, UniProt P20459 1-304, looked up)
chain: MSTSHCRFYENKYPEIDDIVMVNVQQIAEMGAYVKLLEYDNIEGMILLSELSRRRIRSIQKLIRVGKNDVAVVLRVDKEKGYIDLSKRRVSSEDIIKCEEKYQKSKTVHSILRYCAEKFQIPLEELYKTIAWPLSRKFGHAYEAFKLSIIDETVWEGIEPPSKDVLDELKNYISKRLTPQAVKIRADVEVSCFSYEGIDAIKDALKSAEDMSTEQMQVKVKLVAAPLYVLTTQALDKQKGIEQLESAIEKITEVITKYGGVCNITMPPKAVTATEDAELQALLESKELDNRSDSEDDEDESDDE
modifications: found in the purified protein (Table 1): N-term-ac-S2, pS194, pS292, pS294, pS301
notes: eIF2 α-subunit, encoded by SUI2 in yeast Saccharomyces cerevisiae; Expressed from plasmid pAV1089 [SUI2 SUI3 6xHisGCD22 URA3]; N-terminal acetylation on S2 implies that the first methionine is removed; also called SUI2; source: S. cerevisiae strain GP3511 overexpressing the three eIF2 subunits

Assays:
[1] = target: T1, eukaryotic initiation factor 2 γ-subunit (eIF2γ), His-tagged (Saccharomyces cerevisiae, UniProt P32481 1-527, found in the purified protein (Table 1): pT60, acK129, pT137, pS258, pS265, pS312, acK401, acK519); test: native MS; intact His-tagged eIF2 purified from yeast, buffer exchanged against 500 mM ammonium acetate; QSTAR XL modified for high-mass complexes; tandem MS of the 24+ charge state of intact eIF2; conditions: both partners purified
T1 construct: eIF2 γ-subunit, encoded by GCD11 in yeast Saccharomyces cerevisiae (the methods print the plasmid's gene as '6xHisGCD22'); also called GCD11; source: S. cerevisiae strain GP3511 overexpressing the three eIF2 subunits
T1 sequence (P32481 whole entry): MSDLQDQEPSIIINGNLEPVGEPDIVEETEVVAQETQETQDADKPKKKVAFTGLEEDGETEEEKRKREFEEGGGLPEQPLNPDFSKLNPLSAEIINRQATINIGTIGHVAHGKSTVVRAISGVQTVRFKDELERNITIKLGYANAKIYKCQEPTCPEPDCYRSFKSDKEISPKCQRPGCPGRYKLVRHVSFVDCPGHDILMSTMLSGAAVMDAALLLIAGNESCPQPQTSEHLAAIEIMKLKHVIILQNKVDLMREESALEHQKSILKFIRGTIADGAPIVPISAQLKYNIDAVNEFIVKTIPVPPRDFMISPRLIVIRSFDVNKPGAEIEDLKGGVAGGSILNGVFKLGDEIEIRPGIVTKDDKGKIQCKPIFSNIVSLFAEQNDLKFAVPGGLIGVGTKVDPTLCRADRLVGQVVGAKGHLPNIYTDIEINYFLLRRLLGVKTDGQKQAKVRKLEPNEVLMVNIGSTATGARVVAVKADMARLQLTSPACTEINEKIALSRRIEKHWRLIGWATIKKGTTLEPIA

[2] = target: B1; test: cross-linking; purified apo eIF2 with a 1:1 mixture of 2.5 mM BS3-d0/d4, 1 h, room temperature; gel, trypsin, LC-MS/MS; also compared with the ternary complex (Met-tRNAi^Met, GDPNP) by BS3-d0 against BS3-d4; conditions: both partners purified

Binder	stoichiometry N [1]	binding result [2]
eukaryotic initiation factor 2 β-subunit (eIF2β) (natural protein, Saccharomyces cerevisiae, UniProt P09064 1-285, looked up, found in the purified protein (Table 1): N-term-ac-S2, pS40, acK89, pS91, pS92, pS112, eIF2 β-subunit, encoded by SUI3 in yeast Saccharomyces cerevisiae; Expressed from plasmid pAV1089 [SUI2 SUI3 6xHisGCD22 URA3]; N-terminal acetylation on S2 implies that the first methionine is removed; also called SUI3; source: S. cerevisiae strain GP3511 overexpressing the three eIF2 subunits) MSSDLAAELGFDPALKKKKKTKKVIPDDFDAAVNGKENGSGDDLFAGLKKKKKKSKSVSADAEAEKEPTDDIAEALGELSLKKKKKKTKDSSVDAFEKELAKAGLDNVDAESKEGTPSANSSIQQEVGLPYSELLSRFFNILRTNNPELAGDRSGPKFRIPPPVCLRDGKKTIFSNIQDIAEKLHRSPEHLIQYLFAELGTSGSVDGQKRLVIKGKFQSKQMENVLRRYILEYVTCKTCKSINTELKREQSNRLFFMVCKSCGSTRSVSSIKTGFQATVGKRRRM	1	binds
B1	1	
